How the values were obtained:
PDGF-BB [1] = target: T1, PDGF-BB (human, UniProt P01127 82-190); assay: structure-switching fluorescence
PDGF-BB [2] = target: T1, PDGF-BB; assay: structure-switching fluorescence; remark: listed apart in the source

T1 sequence (P01127 82-190): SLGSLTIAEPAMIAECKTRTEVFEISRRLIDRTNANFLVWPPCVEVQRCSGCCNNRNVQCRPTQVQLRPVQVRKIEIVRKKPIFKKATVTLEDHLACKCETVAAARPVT

Binder | binding signal (PDGF-BB [1]) | binding result (PDGF-BB [2])
SPDGF (Apt35-FAM/cDNA12-BHQ1/cDNADCV) (mixed) DNA 1: AAGGCTACGGCACGTAGAGCATCACCATGATCCTGTGTGGTCTATGTCGTCGTTCG DNA 2: TGCCGTAGCCTT DNA 3: AAGTATTACCAGAAACGAACGACGACATAGACCACA | ~6.9 fold fluorescence increase | 
mSPDGF (mApt35-FAM/cDNA12-BHQ1/cDNADCV) (mixed) DNA 1: AAGGCTACGGCACGATCTCGTAGTGGTCTGACTGCTGTGGTCTATGTCGTCGTTCG DNA 2: TGCCGTAGCCTT DNA 3: AAGTATTACCAGAAACGAACGACGACATAGACCACA |  | no binding

— article PMC10631208
